Molecular target: Aβ oligomers: soluble prefibrillar aggregates of biotinylated Aβ(1–42)
Test: SPR; BIAcore T200, single-cycle kinetics; biotinylated Aβ (11–28 or oligomeric 1–42) captured on streptavidin-coupled CM5 chip (100–200 RU); antibody as analyte 0.8–500 nM in HBS-P pH 7.4, 0.15 M NaCl; one-to-one Langmuir model

Question: With “Crenezumab, fully humanized anti-Aβ monoclonal IgG4 (antibody)” as the substance, how does the Kd read?
Answer: The Kd was 0.4 to 0.6 nM.

Source: article PMC5171940
